Experimental data: PMC11199487, “Hub stability in the calcium calmodulin-dependent protein kinase II” (Communications Biology, 2024)
Several values for one entry are separate records, joined by “and”; a condition that tells them apart may be missing. Equal entries are not always repeated.

Experiments:
[1] = biological target: the molecule itself; test: cryo-EM structure; isolated Venus-tagged hubs, 20 mg/mL, flash-frozen stocks thawed on ice, grids plunge-frozen at 4 °C and 100% humidity; self-assembly of the association domains
[2] = biological target: the molecule itself; test: SEC; EnRich SEC 650 column, 50 mM Tris, 150 mM KCl, 0.2 mM TCEP, 2% glycerol, pH 8.0, room temperature, thawed stocks applied without dilution, 250 μL, 1 mL/min
[3] = biological target: the molecule itself; test: cryo-EM structure; Venus-tagged β holoenzyme sample, 20 mg/mL, fresh rather than flash-frozen preparation, grids plunge-frozen at 4 °C and 100% humidity; only the hub resolved

Protein | stoichiometry N [1] | also measured
CaMKIIα hub (6His-V15-mCaMKIIα hub construct: Venus tag, 15-amino-acid linker, α association domain) (domain or fragment, CaMKII alpha association domain (AD); made from the holoenzyme construct by removal of the kinase domain; The plasmid is named mCaMKIIα, but the introduction speaks of rat α hubs; also called isolated α hub; CaMKIIα AD hub; source: E. coli BL21/Rosetta, co-transformed with a protein phosphatase plasmid, purified (nickel Hi-Trap); not shown: Venus, N-terminal, kept) VRKQEIIKVTEQLIEAISNGDFESYTKMCDPGMTAFEPEALGNLVEGLDFHRFYFENLWSRNSKPVHTTILNPHIHLMGDESACIAYIRITQYLDAGGIPRTAQSEETRVWHRRDGKWQIVHFHRSGAPSVLPH | 12 and 14 | 
CaMKIIβ hub (6His-V15-rCaMKIIβ hub construct) (domain or fragment, rat, rat CaMKII beta association domain (AD); made from the holoenzyme construct by removal of the kinase domain; also called isolated β hub; native β; source: E. coli BL21/Rosetta, co-transformed with a protein phosphatase plasmid, purified (nickel Hi-Trap); not shown: Venus, N-terminal, kept) ARKQEIIKTTEQLIEAVNNGDFEAYAKICDPGLTSFEPEALGNLVEGMDFHRFYFENLLAKNSKPIHTTILNPHVHVIGEDAACIAYIRLTQYIDGQGRPRTSQSEETRVWHRPDGKWQNVHFHCSGAPVAPLQ | 12 and 14 | 
CaMKIIβ hub F458A (domain or fragment, rat, rat CaMKII beta association domain (AD) with F458A; as m2 with the substitution; The methods describe F458A mutagenesis only of 6His-V15-rCaMKIIβ (the holoenzyme construct); The results say that F458A disassembles isolated β hubs; also called βF458A (isolated hub); source: E. coli BL21/Rosetta, co-transformed with a protein phosphatase plasmid, purified (nickel Hi-Trap); not shown: Venus, …) ARKQEIIKTTEQLIEAVNNGDFEAYAKICDPGLTSFEPEALGNLVEGMDAHRFYFENLLAKNSKPIHTTILNPHVHVIGEDAACIAYIRLTQYIDGQGRPRTSQSEETRVWHRPDGKWQNVHFHCSGAPVAPLQ |  | stoichiometry N [2]: 2
CaMKIIβ holoenzyme T287A/T306A/T307A (6His-V15-rCaMKIIβ triple mutant) (enzyme, rat, UniProt P08413 1-542, looked up, rat CaMKII beta, open reading frame codon optimized for bacterial expression, with T287A, T306A and T307A; Only the association-domain hub is resolved in the cryo-EM maps; also called engineered β holoenzyme; source: E. coli BL21/Rosetta, co-transformed with a protein phosphatase plasmid, purified (nickel Hi-Trap); not shown: Venus, N-terminal, kept) MATTVTCTRFTDEYQLYEDIGKGAFSVVRRCVKLCTGHEYAAKIINTKKLSARDHQKLEREARICRLLKHSNIVRLHDSISEEGFHYLVFDLVTGGELFEDIVAREYYSEADASHCIQQILEAVLHCHQMGVVHRDLKPENLLLASKCKGAAVKLADFGLAIEVQGDQQAWFGFAGTPGYLSPEVLRKEAYGKPVDIWACGVILYILLVGYPPFWDEDQHKLYQQIKAGAYDFPSPEWDTVTPEAKNLINQMLTINPAKRITAHEALKHPWVCQRSTVASMMHRQEAVECLKKFNARRKLKGAILAAMLATRNFSVGRQTTAPATMSTAASGTTMGLVEQAKSLLNKKADGVKPQTNSTKNSSAITSPKGSLPPAALEPQTTVIHNPVDGIKESSDSTNTTIEDEDAKARKQEIIKTTEQLIEAVNNGDFEAYAKICDPGLTSFEPEALGNLVEGMDFHRFYFENLLAKNSKPIHTTILNPHVHVIGEDAACIAYIRLTQYIDGQGRPRTSQSEETRVWHRPDGKWQNVHFHCSGAPVAPLQ |  | stoichiometry N [3]: 14 and 12
